Results: the DeepSol protein solubility set

Test: soluble on expression in E. coli; label from the status in PepcDB or PDB records

Sequence | soluble on expression in E. coli
MEKIMPEEEYSEFKELILQKELHVVYALSHVCGQDRTLLASILLRIFLHEKLESLLLCTLNDREISMEDEATTLFRATTLASTLMEQYMKATATQFVHHALKDSILKIMESKQSCELSPSKLEKNEDVNTNLTHLLNILSELVEKIFMASEILPPTLRYIYGCLQKSVQHKWPTNTTMRTRVVSGFVFLRLICPAILNPRMFNIISDSPSPIAARTLILVAKSVQNLANLVEFGAKEPYMEGVNPFIKSNKHRMIMFLDELGNVPELPDTTEHSRTDLSRDLAALHEICVAHSDELRTLSNERGAQQHVLKKLLAITELLQQKQNQYTKTNDVR | soluble
MAKGTKYVSKVPDEHGFIEWSTEENLIWQELFTRQIACIKDKACDEYHEGLAKLNLPTDRIPQLDEVSKVLKVSTGWECYPVPALIGFGEFFRLLSEKKFPVATFIRSREEMDYLQEPDIFHEIFGHCPLLTNSSFANYTEAYGKMGLNATKEQRVFLARLYWFTIEFGLLDTPKGLRIYGGGVLSSPGETDYAMNNTDVDRKPFDILDVLRTPYRIDIMQPIYYMLTKVSDLDEIRKFEVDDIMELVAQAEALGLHEAKFPVKKASLEHHHHHH | soluble
FFFTVAFLLVFSIAGLVEILPDFAKASRPTENLKPYSMLETAGRQLYIKESCNACHSQLVRPFKSETDRYGAYSLSGEYAYDRPFLWGSKRTGPDLHRVGDYRTTDWHENHMMDPTSVVPGSIMPAYKHMFKNAADIETAYAEAYTNKVVFGVPYDQPSGIKLGSFEEAKAAMFEEAKLIVEDMKNQDVKDALARGEIKEIVALIAYMNSLGQ | not soluble
MSLSQIVAEVDGYKVTKEELDTLFHVFWKRITHLSSAKPTQEDKRIFLIDYVADLLILKEAKKMGIEVSEKEINDFIRKYVGRKIKEKSVINAVKAEILVEKLVDKLMKEQELNPSEDILRAYYEFYKREFYRPSSVKLLGIYVKSKKEAERISQILKQGEVPSTEDVKVSKPLWYSIPTLPKYIRRNFRTLSVGEVSKPIKINDGYLVFKILDKKEGHHHHHH | soluble
MTAVRRIRAAALPDLPDASWSNALLVGEELVMSGMTAHPATRQAAERGAALDAHAQALVVLGKVKALLEAAGGHVGNLYKLNVYVTRIADKDAIGRARQEFFAGQGTFPASTLVEVSGLVFPELLVEIDAWARLDIDLANCDEA | soluble
AHHHHHHGSIKLRDELGTATTDSAQKILLLGSGELGKEIAIEAQRLGVEVVAVDRYANAPAMQVAHRSYVGNMMDKDFLWSVVEREKPDAIIPEIEAINLDALFEFEKEGYFVVPNAKATWIAMHRERLRETLVKEAKVPTSRYMYATTLDELYEACEKIGYPCHTKAIMSSSGKGSYFVRGPEDIPKAWEEAKTKARGSAEKIIVEEHIDFDVEITELAVRHFDENGEIVTTFPKPVGHYQIDGDYHASWQPAEISEKAEREVYRIAKRITDVLGGLGLFGVEMFVKGDKVWANEVSPRPHDTGMVTLASHPPGFSEFGLHLRAVLGLPIPGEWVDGYRLFPMLIPAATHVIKAKVSGYSPRFRGLAKALSVPNATIRLFGKPEAYPGRRLGVVLAWDKDVQEAKKRAEMVAHMIELRTRSSDWHSQDYEKRKHLL | soluble
MSLIMSEPPQLTTPDDKDVENRKHSSTYSISNLLLEKKESSPSGSSSEDDSASSNDDDQRSPSATSSFIFPPASSSSSSESATSPTQIMAQLMANGGAVDPGLQAYFFLLQSQLNSQSMMNRVTQENVSRALTSFNLLNNLPGALPSLSPMGRLQHSMQLSPNSLNMQKKQSRPTFTGHQIYQLERKFEQTKYLAGADRAQLAQELNMSESQVKVWFQNRRTKWRKKEAADNALVKRGASGDKSPCSLSPFLSAGI | not soluble
MSLKKQPGFTQDYLLSKATTLPDKTRLERAVEPLCARHPGECGILALDNSLDAFAARYRLTEMAARTLDVQYYIWEDDMSGRLLFSVLLSAAKRGVHVRLLLDDNNTPGLDDTLRLLDSHPNIEVRLFNPFSFRTLRALGYLTDFARLNRRMHNKSYTADGVVTLVGGRNIGDAYFGAGEEPLFSDLDVMAIGPVVNDVANDFERYWRCSSVSTLQQVLSLSEQELTQRIELPESWYNDEITRRYLHKLETSQFMADLDCGTLPLIWAKTRLLSDDPSKGEGKAQRHSLLPQRLFDVMGSPTERIDIISAYFVPTRAGVAQLLNLVRKGVKIAILTNSLAANDVAVVHAGYARWRKKLLRYGVELYELKPTREHETAVHDRGLTGNSGSSLHAKTFSIDGSKVFIGSLNFDPRSTLLNTEMGFVIESETLATLIHKRFTQSQRDAAWQLRLDRWGRINWIDRQQEEEKVLKKEPATRFWQRVLVRLAAILPVEWLLEGHHHHHH | soluble
MGSDKIHHHHHHMKCNDKLAPFEVFDHVVNKKLSFRHVTMDDVDMLHSWMHEEHVIPYWKLNIPLVDYKKHLQTFLNDDHQTLMVGAINGVPMSYWESYWVKEDIIANYYPFEEHDQGIHLLIGPQEYLGQGLIYPLLLAIMQQKFQEPDTNTIVAEPDRRNKKMIHVFKKCGFQPVKEVELPDKIGLLMKCEQNVFEKRWSDWKMNKF | not soluble
MLVAERHEKIIALVTEKGSVRVSELSQLFNVTEETIRRDLEKLESERKLQRSHGGAVSIKEDTEAPYFEREIRNVNEKQAVAAQAVTYVTTNDRIILDASTTAWYMAKRLPDVPLTVLTNSMKVAMELAKREKITVITVGGTLLRKSLSFVGPQTNQTLELYHVNKAFISCQGVHAKRGISDSNEMQALVKQKMIDISDHVFLLADHTKFGKQAFSRITSMETIDTIITDSKTSEEQISDFQELEMDVIRALEHHHHHH | soluble
MGSDKIHHHHHHMSAFWPFRLTTGCNVNLKFLETFIWVAKLRSFSLAADKLHSTQAAISSRISVLEQELGAKLFTREPKGVALTRAGERVLQHAEQVNESMTRLYASLQDEKFAFGTIRIGAMDSAIHSWFVNFVSDVMHYYPNLDIEVTSETALNLNEQLRRGMLDMVIQTDMLRDETIRSIEVLELSMGWVAAANSPIVSQEAYDTPTAALRGLGRERLITYSRHSRPHQDLLRLMQSYGIGESRVSCVNSVAAMIQLTQAGFGVAAMPPALVPELLNSGVLRQLEGLEAPPPLPFVIAWRSGTNWTERLVEVAVETVSKYAARLGQDAARLVV | not soluble
MADKHLIREKVLRNLNTIDKVEHRERSIKLAEKLFLLPEWNQAKVIGITLARHPEIETETIILQAKKEGKTVLIPKTFYPSRKMEFKKMDSSHPLTKTKFGILEPHELAETVDKDAIDLLIVPGVVFNKAHFRIGFGGGFYDRFLADFKGETVSLCLYEQQIEFTPESHDKPVSILIEG | soluble
MGSDKIHHHHHHMIINNVNMVLSQEIIHGSLEVRNGVIHHINDRPSRHPGALDGEQAWLLPGLVELHTDNLDKCFTPRPGVNWPSEAAMRNHDALIISSGITTVLDAVAVGDVRDGGHRLENLRRMTDAVLYSQQHGTNRADHHLHLRCELPHQDTFPLFEQLADIPLVALASLMDHSPGQRQFSSQEKYHQYYKGKYHLNDEQMAAFEEEQLAGSRRWSQPNREAIVRLCHEKGITLASHDDATSEHITESHQHRVAIAEFPTTEIAAQQAHGVGMNVLMGAPNVICGGSHSGNVSAHHLATLGVLHILSSDYYPASLLEAAFMIAEDERNDYDLPRAIALVSNNPAQALKFDDRGCIEEGRRADLLLVKRHAPQMKLMRVWRQGVRVF | not soluble
GMQTINATEIRNNFSYYIDTVVRDKPIAVKRNRDVLLFFSEQIIKDLLQDLKIHAELSKEDGIIIGTIDGFDLVVSGESEQEVIQKLAEDLLEYAQDYMNDFKLFYNAPNRKTHYPYILKVLLSSNIDEVKGYIYAEMV | soluble
MTYCLAIKVDQGLVFASDSRTHAGVDYASVYSKMYRFDLHSDRLMIVLAAGNLATTQAVINLIRRDLENPGALYNLNTVAYLYDAASYIGETSVRVQEQHASAMQRCGISGEASFILGGQIQGQPPEIYLIYPQGNYITVSPDNPYLQIGETKYGKPILDRMIAPATTLEDAARCALVSIDSTMRSNISVGPPVEVAIYRRNSFVVGHYLHLDYSSPLYALIQKQWAEGIRNAFTLLPRFEWEDGGSIGSEQSQLEHHHHHH | not soluble
MDMKHTLLEALGIEIVENTAERCVAVMPVDHRTVQPFGYLHGGASVALAETAARPGAQNLIDHTTQACVGLEINANHLKSVKEGTVKAIAEPVHIGRTTIVYHIHIYDEQERLICISRCTLAVIKKLEHHHHHH | soluble
MGSDKIHHHHHHSHKYTAITPGVEWLDTNNEKINAHGGGILYHEGIYYWYGECKSDSTYWNPNVPGWECYRTEAGGVNCYSSKDLLNWKYEGLVLQPEISDTQSDLHPSKVLERPKVIYNDKTKKFVMWLHVDSDDYNKAAAGVAVSDSPTGVFTYLGSMHPNGQISRDMTLFKDDDGKAYHIYSSEQNSTLYISLLSDDYLKPSGTFTRNFAGKFREAPAVFKHNGLYYVISSGCTGWSPNEAEYAVATQILGPWTVKGNPCVGKDADKTFYGQSTHVLPIQGKKDAYIAMFDKWNKTDLIHSTYIWLPIQFREDGSMAIQWLDSWSPDTYEF | not soluble
MSLSNKIFTHSLPMRYADFPTLVDALDYAALSSAGMNFYDRRCQLEDQLEYQTLKARAEAGAKRLLSLNLKKGDRVALIAETSSEFVEAFFACQYAGLVAVPLAIPMGVGQRDSWSAKLQGLLASCQPAAIITGDEWLPLVNAATHDNPELHVLSHAWFKALPEADVALQRPVPNDIAYLQYTSGSTRFPRGVIITHREVMANLRAISHDGIKLRPGDRCVSWLPFYHDMGLVGFLLTPVATQLSVDYLRTQDFAMRPLQWLKLISKNRGTVSVAPPFGYELCQRRVNEKDLAELDLSCWRVAGIGAEPISAEQLHQFAECFRQVNFDNKTFMPCYGLAENALAVSFSDEASGVVVNEVDRDILEYQGKAVAPGAETRAVSTFVNCGKALPEHGIEIRNEAGMPVAERVVGHICISGPSLMSGYFGDQVSQDEIAATGWLDTGDLGYLLDGYLYVTGRIKDLIIIRGRNIWPQDIEYIAEQEPEIHSGDAIAFVTAQEKIILQIQCRISDEERRGQLIHALAARIQSEFGVTAAIDLLPPHSIPRTSSGKPARAEAKKRYQKAYAASLNVQESLAEGHHHHHH | soluble
VDREQLVQKARLAEQAERYDDMAAAMKNVTELNEPLSNEERNLLSVAYKNVVGARRSSWRVISSIEQKTSADGNEKKIEMVRAYREKIEKELEAVCQDVLSLLDNYLIKNCSETQYESKVFYLKMKGDYYRYLAEVATGEKRATVVESSEKAYSEAHEISKEHMQPTHPIRLGLALNYSVFYYEIQNAPEQACHLAKTAFDDAIAELDTLNEDSYKDSTLIMQLLRDNLTLWTSDQQDDDGGEGNN | soluble
MRPTVVSMGKHFGNLGKMYGEHRFALAPNEQKAYKGFFDQAFVKTFKTYVWDQWYYYIPQTIGAYLLYDWAKKTNVAANRKNPADFANDQ | not soluble
MSMAMSQSNRELVVDFLSYKLSQKGYSWSQFSDVEENRTEAPEGTESEAVKQALREAGDEFELRYRRAFSDLTSQLHITPGTAYQSFEQVVNELFRDGVNWGRIVAFFSFGGALCVESVDKEMQVLVSRIAAWMATYLNDHLEPWIQENGGWDTFVELYGNNAAAESRKGQERLEHHHHHH | soluble
MEVDNVKPSSSVPQRNWEKENNVQNVDSIFEYNNKQQVEIRNAKPWDKDPHYFKQIKISAIALLKMTMHAKRGGNLEIMGLLQGRIDANSFIILDVFALPVEGTETRVNAQAQAYEYMTVYSEMCDTEGRKEKVVGWYHSHPGYGCWLSGIDVSTQTLNQKFQEPWVAIVIDPLRTMSAGKVDIGAFRTYPEGYRPPDDVPSEYQSIPLAKIEDFGVHCKRYYSLDVSFFKSQLDAHILTSLWNSYWISTLSSSPLFSNVEFLNNQIQDINQKLSAVDKKLQLNDRSVDGHEALMKVVTDAKAVGDELETGRISHLVKQLLFARQAGGGCGCSHASAGSPMDIAVATEPEKAGPSPSAPEPAVEMADA | not soluble
